# Target: extracellular region of human V158 FcγRIIIa fused with glutathione S-Transferase (GST) (human, UniProt P08637 17-208)
# Assay: AlphaScreen competition
binder,measurement,value
WT alemtuzumab (antibody) chain 1: not shown chain 2: not shown,IC50,4.6 nM

# Source: patent US20070224189A1 (published 2007)
